Reference: US20220348666A1 (SUZHOU CONNECT BIOPHARMACEUTICALS, published 2022)
Where “and” joins values, the source holds several entries; their conditions need not be identical. Identical values can stand only once.

Assays:
[1] = biological target: T1, sIL-4Rα (antigen, expressed according to NM_000418.4) (human, UniProt P24394 26-232, limits assumed); assay: indirect ELISA, sIL-4Rα coated on plate, enzyme labeled secondary antibody, run 1
T1 construct: Soluble form coated on the ELISA plate; also called human interleukin-4 receptor alpha
T1 sequence (looked up): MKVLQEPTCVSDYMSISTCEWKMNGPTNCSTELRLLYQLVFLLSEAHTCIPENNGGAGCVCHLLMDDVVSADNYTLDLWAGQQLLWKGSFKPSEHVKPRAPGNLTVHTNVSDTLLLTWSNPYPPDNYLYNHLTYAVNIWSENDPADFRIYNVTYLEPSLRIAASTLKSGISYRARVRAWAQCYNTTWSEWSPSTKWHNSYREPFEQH
Method: (§1) The antigen (sIL-4Rα, expressed according to NM_000418.4) was coated and absorbed on a solid phase plate for ELISA, and then plate was washed, blocked and washed again before adding the samples to be tested for binding with the antigen. The samples to be tested were dilutions of the formulation prepared according to Example 6 of the present application, and the dilutions were obtained by diluting the formulation with 1% BSA to an antibody concentration of 1000 ng/mL, and subsequently performing a gradient dilution from an initial concentration of 1000 ng/mL to a concentration of 0 ng/mL. The unbound antibody was removed through washing after incubation, and an enzyme labeled secondary antibody was added for further incubation. After the unbound enzyme labeled secondary antibody was removed through washing, enzyme reaction substrate was added for color developing. Finally, the reaction was stopped by adding a stop solution, and absorbance values were read at 450 nm and 655 nm on a microplate reader. According to the absorbance values, half effective concentration EC₅₀ was calculated by curve fitting.

[2] = biological target: T1, sIL-4Rα (antigen, expressed according …); assay: indirect ELISA, sIL-4Rα coated on plate, enzyme labeled secondary antibody, run 2
Method: as §1

[3] = biological target: T1, sIL-4Rα (antigen, expressed according …); assay: indirect ELISA, sIL-4Rα coated on plate, enzyme labeled secondary antibody, average value of 6 runs
Method: as §1

[4] = biological target: T1, sIL-4Rα (antigen, expressed according …); assay: indirect ELISA, sIL-4Rα coated on plate, enzyme labeled secondary antibody, run 4
Method: as §1

[5] = biological target: T1, sIL-4Rα (antigen, expressed according …); assay: indirect ELISA, sIL-4Rα coated on plate, enzyme labeled secondary antibody, run 3
Method: as §1

[6] = biological target: T1, sIL-4Rα (antigen, expressed according …); assay: indirect ELISA, sIL-4Rα coated on plate, enzyme labeled secondary antibody, run 5
Method: as §1

[7] = biological target: T2, human interleukin-4 receptor alpha on HEK Blue IL4/IL13 cells (human, UniProt P24394 26-825); assay: cell-based or functional assay
T2 sequence (looked up): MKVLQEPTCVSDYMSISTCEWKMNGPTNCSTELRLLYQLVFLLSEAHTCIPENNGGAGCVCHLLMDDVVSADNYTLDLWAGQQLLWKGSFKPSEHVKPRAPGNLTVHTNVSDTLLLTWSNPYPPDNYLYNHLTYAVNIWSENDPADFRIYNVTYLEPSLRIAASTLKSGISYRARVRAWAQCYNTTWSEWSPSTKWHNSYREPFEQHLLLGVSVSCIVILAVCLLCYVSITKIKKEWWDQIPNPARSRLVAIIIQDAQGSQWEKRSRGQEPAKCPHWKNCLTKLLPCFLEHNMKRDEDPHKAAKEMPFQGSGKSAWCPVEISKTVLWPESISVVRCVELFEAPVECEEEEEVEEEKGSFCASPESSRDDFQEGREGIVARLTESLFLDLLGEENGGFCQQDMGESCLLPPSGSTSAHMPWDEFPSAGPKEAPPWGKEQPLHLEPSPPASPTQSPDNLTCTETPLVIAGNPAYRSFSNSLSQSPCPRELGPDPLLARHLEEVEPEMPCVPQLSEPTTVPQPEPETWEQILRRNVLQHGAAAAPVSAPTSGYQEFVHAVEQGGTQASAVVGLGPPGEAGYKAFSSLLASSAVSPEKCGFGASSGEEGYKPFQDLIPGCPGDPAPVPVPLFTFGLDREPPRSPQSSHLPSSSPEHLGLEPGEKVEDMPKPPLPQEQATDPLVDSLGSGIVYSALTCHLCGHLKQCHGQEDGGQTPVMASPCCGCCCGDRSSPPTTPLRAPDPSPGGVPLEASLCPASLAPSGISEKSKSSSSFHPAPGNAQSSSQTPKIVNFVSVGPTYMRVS

[8] = biological target: T1, sIL-4Rα (antigen, expressed according …); assay: indirect ELISA, sIL-4Rα coated on plate, enzyme labeled secondary antibody, run 6
Method: as §1

B1: CBP-201 (antibody, human IgG4 S228P, kappa, V domains shown)
VH: EVQLVESGGGLVQPGGSLRLSCAASGFTFSRNAMFWVRQAPGKGLEWVSGIGTGGATSYADSVKGRFTISRDNAKNSLYLQMNSLRAEDTAVYYCARGRYYFDYWGQGTLVTVSS
VL: EIVLTQSPGTLSLSPGERATLSCRASQSVSSSYLAWYQQKPGQAPRLLIYGASSRATGIPDRFSGSGSGTDFTLTISRLEPEDFAVYYCQQYDHSAGWTFGQGTKVEIKR
notes: Monoclonal antibody; also called CBP-201 antibody; CBP-201 formulation
[1]
  EC50: 1.59 ng/mL and 1.4 ng/mL
[2]
  EC50: 1.52 ng/mL and 1.28 ng/mL
[3]
  EC50: 1.69 ng/mL and 1.56 ng/mL
[4]
  EC50: 1.85 ng/mL and 1.8 ng/mL
[5]
  EC50: 1.84 ng/mL and 1.77 ng/mL
[6]
  EC50: 1.77 ng/mL and 1.84 ng/mL
[7]
  IC50 (average value) of blocking STAT-6 signal transduction, HEK Blue IL4/IL13 cells with 0.5 ng/mL IL4, Quanti-blue absorbance at 650 nM: 4.19 ng/mL and 4.51 ng/mL
[8]
  EC50: 1.53 ng/mL and 1.45 ng/mL
